This series can be described thus: soluble on expression in E. coli; label from the status in PepcDB or PDB records.
Turning to “MNALLRFTLGLCSMTLLAGCGENIDHSKIRSSGFVYCGESAPTTFNPQLADNDITSDALGPQIYNTLLTIDPETHLPVASLASSWTVNSTGLEYVFKLRPDVAFQTTPWFSPTRPLNADDVVFSFRRIIDPTNPYHKVGQTQYPWFKGIDFQNLLVDVSALDDLTVKFVLSRPDNSFLSNIATSHAVILSLEYANQLIIDDEKEKLDNLPLGTGPFYLAEYHPRDLIRLKRHPQYWEGAAKVEQVVFDISQRGTGMLAKLLRNECDVLNAPISSQLPAIEKNPDIVLQTTPAMNVAFIAVNTQHPALNDNRVRKALNFAINRQNILDSVYYGTGSIAFTILPPTSWAYQQDTAQIRYDRNYAQALLREAGFATGLELTMSVPVEPKAYNPSPRKTAELIQANLADIGVTLRLISEDRSERQELSIRNNIDLYLSGWTGDTGDPDNFLRPLLSCDSNRAGLNVSMWCDSDFDFLLDLALEANKPRYRLNLYHQAQNILNQEFPVIPLAHGIQFTAYSKSLTGIRISPFNVQPFNTVERVAE”, the “soluble on expression in E. coli” value is “not soluble”.

For “MAHHHHHHMTTLEKRIEEASGLIYRARAEETPDGNPLVAARNYIAAMEIITNICKDVSPESDNDKDRFFLFQVRQRMEVYQKRVQLLLSVAAEMGLDDIPEHVGNTVLDSPPHAGDRTGAADFENPAVPSTAPTSVPPPACADGFGENVPPLEYFFSQQPQAPTRPHPEETESVEALLGQFSFDEVKKE”, the “soluble on expression in E. coli” value was “soluble”.

Consider “MAHHHHHHMGGCVVSVMAKRNAAQVMPDPRAEALERRRAQCGGNFVQRVPGTESEHASAIYRIAGVTAEQHEAILAAAAARPTFYTTLMRHCAERTDQRVLGYRPVKCVTKEPAPSKSSGSTSEPAKKERLMSITHFDEVVHVTYSEMEERIFHFGAGLAALGVTANGNVSIYLDTCVEWLIGIYGIWSCSAVAATVYANLGEAALAHALHETESQAILCGSVNVANVLKLMKNGVMPQVPIIHVGALPASLDTHGVQVVSFKQVEMIGAAHLEGGAAKGTGPLNDDDLALIMYTSGTTGDPKGVMHTHRTLAAGLHTLEPRVIDLLGQPRPDDVYLSYLPMAHIMEFTITNLFIFRGAFIGFGTPRTLTDTTARPHGDLLTFNPSMLAGVPRIFDTLKKAVEAKLPPVGTLKRQVFDHAYQSRLAAMKEGKDTPFWNEKVFAAPRAVLGSRLRIMLSGGGPLSAATHEFVNVVFGRVVIGYGLTETICVGAIQIPGDTETNVTGLMEPGQEIKLLDIDEYKHTDTPEPRGEMLSRGPYLFKGYYKQPELTREVLDEDGWFHTGDVGSFTADGKMRIVGRVKALAKNCLGEYIALEALEAVYSSNELLQPNGVCVLVHPDKPYITALALTDEARATSFAAKHGIEGTYPALLKDQRFQQAAAISMADTARASNRASFECVKRVRVIDDEWTPENEILTAAQKLKRRVIDAQYAQTIAELFADD”, for which the “soluble on expression in E. coli” value is on record as “not soluble”. Take “GSKCKCSRKGPKIRYSDVKKLEMKPKYPHCEEKMVIITTKSVSRYRGQEHCLHPKLQSTKRFIKWYNAWNEKRRVYEE”: the “soluble on expression in E. coli” value is “soluble”. Next, “MAQTTLIKNVNGYTFTDNSLTQFSAISFTDDIINKVYPIGAVLPASKGVIVIDGQGQTMLPGLIDAHGHVIGYGHSLEHHHHHH”: “not soluble”.

As for “MSLYLWNIQISSAFLEVISLYEVTLRNTLVKALEPNYRQYSILNDNFIRALRHETREALIVAVNKVSLNSHKYSAVRGAHGMIQPLKIDPRDVPVGKVVAELNFVFWENMLSKTHSSRWKAHYKEAFPNLVVEPNIGIECQIARIHQITGKVRELRNRICHHEPIFDENKINLSELYTQIKEVLNYISRLDKYTKEGHHHHHH”, the “soluble on expression in E. coli” value is “not soluble”.

Regarding “MGSDKIHHHHHHMSNDIDLIKRLGPSAMDQIMLYLAFSAMRTSGHRHGAFLDAAATAAKCAIYMTYLEQGQNLRMTGHLHHLEPKRVKIIVEEVRQALMEGKLLKTLGSQEPRYLIQFPYVWMEQYPWIPGRSRIPGTSLTSEEKRQIEHKLPSNLPDAQLVTSFEFLELIEFLHKRSQEDLPPEHRMELSEALAEHIKRRLLYSGTVTRIDSPWGMPFYALTRPFYAPADDQERTYIMVEDTARYFRMMKDWAEKRPNAMRALEELDVPPERWDEAMQELDEIIRTWADKYHQVGGIPMILQMVFGRKED”, the “soluble on expression in E. coli” value was “not soluble”. As to “MSFRHFKRRLDTSSADESSSADEEHPDQNVSLTEKSASLSHSDLGGEILNGTGKNRTPNDGQESNESDGSPESDESPESEESSDNSDSSDSDDMRPLPRPLFMKKKANNLQKATKIDQPWNAQDDARVLQTKKENMIKNIDKANQVAKNYETMKLRLNTNYSTNEELIKQCLLLDDNDEVDSEKERQKWFERQNERKQKHRRIQLAKQRESEEYEAKRFEAMQKGKDGNTKYDVILDKEKEKLDHKKQRSAEKVEKSHNNNRYKITRTKNVEFGDLGKNSRDYEETEYSVI”, the “soluble on expression in E. coli” value is listed as “soluble”. Next, “MLKIGIIPNEDKDEELKYTRILVDSIKKCGGTAIVCDDIALKLGDKESNINEDNIVDMSDVMVCLGGDGTFLKAARMTVVKGKPLLGVNLGKLGFLADVDKNDIENAVKRLVEDKFTVDERMMLDTVIVRDGKIIAEDIVLNDVVISRGAISRILHLKTYINDAFMDLYPGDGLIISTPTGSTAYSLSAGGPLVEPDVDLIICTPICPHLLYSRSFITTADRVIKVVVAESSSHEAMVTVDGQNGYEVRGGDVIITKKSRIRMPMVRLNGKNFFDVLRGKIYDRGESMK”: “not soluble”; “MSLTPWLSIVGISEEGWLALTPIAQQCILQADILVGSDRHFDLLPSLPGAEQWRWGSPFSATITQILERRGQSICILASGDPMCYGVGSLLAQRLPLTELQILPAPSAFSLACSRLGWALPEVETLSLCGRDPALLNALLYPGAKILALSADRSTPATIAEQLCQQGWGSSRLTVLEHLGGPKERKISEIAEHWSQPTIASLNTVAIECHARDRDLIVPPRLTGLPDAAYHHDGQLTKREVRAITLAALAPLPGQLLWDVGAGCGSIGIEWMRSDRRCRAIAIEQHPQRLQIITQNAIALGVPNLQVVAGSAPATLSGLPQPDAIFIGGGVTAPGVLDQCWQALPMGGRLVVNAVTLESEQVVLAGQQRWGGDLIRVAVQRAEPIGRFLGWKSLAPITQWTVKKTALEHHHHHH”: “soluble”; “GPGSMSNEEVFRISNVSGYSVEIPLATAKELLGMLNMDQVFRAARAGTDDTDESGVDDGDTEPVKAEGMDYGKEVLDVVRAYALLPPDKRTSSIPRPLTQDLRSVVYAGEMELVEKAEREDYLVDLLNCALFLRFSQLSALCAAYMAVRIDEIAKAAPDIMEGAERIRKFLHMQNEWTEEEMGHLRREMEYAKSVDPNVY”: “soluble”. As for “MSLTPDAQVATAQRDDQALISEGKDLYDVACITCHGVNLQGVEDRGPSLVGVGEGAVYFQVHSGRMPILRNEAQAERKAPRYTEAQTLAIAAYVAANGGGPGLVYNEDGTLAMEELRGENYDGQITSADVARGGDLFRLNCASCHNFTGRGGALSSGKYAPNLDAANEQEIYQAMLTGPQNMPKFSDRQLSADEKKDIIAFIKSTKEGHHHHHH”, the entry is “soluble”. Regarding “WLRPAFAGKTRLDALDEAAFEQAVKSLLSWTQHALIDRHVPAHIIVPSGMGRHIDYGLADDGTPQPPVLSVKLQELFGLPDTPRIAKNRIPLTLHLLSPGGRPLQVTQDLKSFWTNTYPEVKKEMKGRYPKHPWPDDPWTATATHRTKSPGK”, the “soluble on expression in E. coli” value is reported as “not soluble”. Next, “ADVAIVGGGFVGLWTAITLKQLEPDARVLLLEQDVCGGGASGRNGGFVMSWWPKIGTLLGFCSEAQARFLGESAERAIQELGEFCARHDIDAHFQQKGWLWTATTAHHLDAWNDTLAACERLGVSPFERLDASEVARRTGSPVHLAGVFERSNATVQPALLVQGMRRVALALGVEIHERCGVSQIVPGQPAQLLSAGARVQAKAVVLATNAWSAALPRLSRLIVPVNSSIAVTEAIPQRLERIGWTGGEAITDSQLMVDYYRTTRDGRIAFGKGTGALSYGSRIGRVFDVDRESLALTEADFRRTYPSLGDIPLVDGWSGPIDRTYDSLPVFGRLHENIHYGIGWSGNGVGPSRLGGRILASLALGRDDPWSR”: “not soluble”; “VQQTERAVMLRFGRVVESDVKPGLHFKIPYVNQVRKFDARLLTLDAPTQRFLTLEKKAVMVDAYAKWRVADAERFYTATSGLKQIADERLSRRLEAGLRDQFGKRTLHEVVSGERDALMGDITASLNRMAQKELGIEVIDVRVKAIDLPKEVNRSVFERMSTEREREAREHRAKGRELAEGIRADADRQRRVIVAEAYRESEETRGDGDSKAAAIYAKAYNQDPEFYSFYRSLKAYRESFAEKRDVLVLDPSSEFFRY”: “not soluble”.

For the origin of these results see the DeepSol protein solubility set.
